Protein production data for eleven sequences are collected here from a protein production outcome set (Wang et al. 2014).

The nature of this series: label from the status in PepcDB records.
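Note: failed if final PepcDB status was selected cloned or expressed and not failed if soluble or beyond.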

On to “AAIILHEIYGINAHIQRAGHEWMTRGFDIYIPALFPHHTPFRYEQQEEAYRHFSANVGFDPAVVTTLLHELRTQYETLIVVGYSVGATLAWLSAASGLCDGVICYYGSRIRQYLHLAPLCPTLVIIARYEPAFDPLAMRQTLEKRPRVQCKMYDARHGFCDADSATFDAALSHQVMDDVSAFIRDI”, for which the protein production entry is listed as “failed”.
In the case of “AAIRHITTGTYIARIREEYQQTEVKPELQPMKEALARMTDRAEALIAFVTEQKDQELLDFQARRLVEMTAHAVFGHLLMLAANDDDSFRQSAEVYLRYGQAEQEKIDSYVRAFRPEELTFYSRCSRPE”, the protein production result is “not failed”.
Regarding “ADGILVVDLKGNIEFCNQQFLKMWGIAPGFIDSHNDTETIQYVLNQLKNPEEFLKQIKELYNNPKQESFDELHFKDGKIFERYSQPHWLDN”, the protein production result was “failed”.
With “ADWPDRFNLRKPFEKLLYSGSRTGFRLASERSAKQAKGPRKADPDGLFDLSFSDDQQMLVDMLEGFALEVLRPLAHDADAEASLPAELLNQALELGLTHYGVGEVHGGMAGERTTVTTALIAEALAKGDLTLAAALLVPLSAANCIRRWGSPSQQAQWLPAFVSEEGAPLTAIAVNEPSLLFDPQKLATRARRKGSHYLLSGEKCLVLRGLEASRLIVAAKTDEGPALFLVEASAKGVERRAEPAMGLKAGGTARLRLKSVKVPADNRLAAEHFDYRAFLDHASLAWCALALGTGQAALDYVIAYCNEREAFGEPISHRQGVAFMVADIAIELDAMRLMVWRACALAERGQPFQREAYLARLLCAEKAMKIGTDAVQLLGGHGFTKEHPAERWYR”, the protein production entry is “failed”.
The entry for “AEEKKEDEFKTIKIEKLDGGITKLVLNRPDRLNTISPEVLDEIDRAITQLWNDKDTRVIVITGAGDRAFSAGADLGGSIITHPFDFLEHNRKGERVFTRLREIPKPVIAAINGYALGGGLEIAMNCDIRLAKKSAVLGLPEVGLGILPGWSGTQRLVKLVGISRAMQLALTGERITAEEAERWGLVNKVFDDDKFEEEVMNYAKNIAERCAPISMALIKRLINKGGEVPMDIGLEWECTAAGLLFATEDMREGISAFLRKDKPQFKGR” is “failed”; for “AEIDTSSIVEMVQGAEDAPVEVIEYASYTCPHCAAFHEGPYKKLKADFIDTGKVRFIYREVYFDRYGLWASMVARCAGPEKFFGISDLIYKGQAEWSRAGGPAEIAEELRKIGRLAGIENDKLEACLGDATKAQTLVAWYQEHATRDDINSTPSFMINGKKVENQAYDGFKALIEAELGN” it is “not failed”.
The entry for “AEIYNKDGNKVDLYGKAVGLHYFSKGNGENSYGGNGDMTYARLGFKGETQINSDLTGYGQWEYNFQGNNSEGADAQTGNKTRLAFAGLKYADVGSFDYGRNYGVVYDALGYTDMLPEFGGDTAYSDDFFVGRVGGVATYRNSNFFGLVDGLNFAVQYLGKNERDTARRSNGDGVGGSISYEYEGFGIVGAYGAADRTNLQEAQPLGNGKKAEQWATGLKYDANNIYLAANYGETRNATPITNKFTNTSGFANKTQDVLLVAQYQFDFGLRPSIAYTKSKAKDVEGIGDVDLVNYFEVGATYYFNKNMSTYVDYIINQIDSDNKLGVGSDDTVAVGIVYQF” is “not failed”; for “AEPVLGDDGLYQLDWYLQSFLDLKEDLEGATAKGKRFAILWGLKGCPYCKKLHDVHMRDPAIESYIRDNFEIVHLNHIGAREVTDFDGSKLSEKAFAQAYGIRFTPSLQFFPESADGLAAKKPQDREVARMPGLLEPPEFLAMFKYVREKGYQSM” it is “failed”.
To “AESLSGLSLKLVKKEPRQLELTWAGSRPRNPGGNLSYELHVLNQDEEWHQMVLEPRVLLTKLQPDTTYIVRVRTLTPLGPGPFSPDHEFRTSPP” belongs “not failed”; to “AGGRERRVAVLFCDLRDFTRIAEHRLPYDTVFLLNRYFEVVGEAVEGSGGVVDKFIGDGALAIFGLKTPLPEACRQALSAAARLSQGIRALNQTFEGELEQPLRLAIGLHAGPAIIGEMGYGQATSLTVVGDTINTASRLEGLAKEHDVELAVSAELVERAGLSFEGHRRLEIGLRGRKATLETWIIGDAAQLSLSLP”, “failed”.
Consider “AGNRASNQGNSQPQQKYTVMSGTPEKILEHFLETIRLEATLNEATDSVLNDFIMMHCVFMPNTQLCPALVAHYHAQPSQGTEQEKMDYALNNKRRVIRLVLQWAAMYGDLLQEDDVSMAFLEEFYVSVSDDARM”, for which the protein production entry is “failed”.
